Columns and labels:
[1] = target: His-LpxA (C. sakazakii) (UniProt A7MI18)
[2] = target: Labp V94A expressed from pKT25 (C. sakazakii); assay: two-hybrid; bacterial adenylate cyclase-based two-hybrid (BACTH) in E. coli BTH101, pKT25 and pUT18C fusions, β-galactosidase activity in Miller units

Molecule | LpxA enzymatic activity: fluorescence of ThioGlo-ACP conjugates (RFU) with UDP-GlcNAc and R-3-hydroxymyristoyl-ACP; 10 nM LpxA with 300 nM His-CSK29544 02616 against LpxA alone [1] [fold] | fold reduction in ß-galactosidase activity compared to intact Labp [2] [fold]
His-CSK29544_02616 (His×6-tagged CSK29544_02616 product, Labp) (natural protein) | 2 | –
LpxA expressed from pUT18C (enzyme) MIDKTAFIHPTAIVEEGAVIGANAHIGPFCIVGPDVKIGEGTVLKSHVVVNGHTTIGRDNEIYQFASIGEVNQDLKYAGEPTRVEIGDRNRIRESVTIHRGTAQGGGLTKVGSDNLLMINAHVAHDCTVGNRCILANNATLAGHVSVDDFAIIGGMTAVHQFCIIGAHVMVGGCSGVAQDVPPYVIAQGNHATPFGVNIEGLKRRGFSKEALHAIRNAYKLLYRSGKTLDEVKPEIAEIAAKHPEVQPFYDFFARSTRGLIR | – | 4

— article PMC5770445
